Where no end group is shown, it is not given here. red fluorescent dye = not defined here
How the values were obtained:
[1] = molecular target: T1, JAK3 (Homo sapiens, UniProt P52333); experiment: In vitro kinase assay JAK3; format: biochemical; conditions: ten times higher concentration than 0.1 μM
T1 construct: endogenous in cells
T1 sequence (P52333 1-1124): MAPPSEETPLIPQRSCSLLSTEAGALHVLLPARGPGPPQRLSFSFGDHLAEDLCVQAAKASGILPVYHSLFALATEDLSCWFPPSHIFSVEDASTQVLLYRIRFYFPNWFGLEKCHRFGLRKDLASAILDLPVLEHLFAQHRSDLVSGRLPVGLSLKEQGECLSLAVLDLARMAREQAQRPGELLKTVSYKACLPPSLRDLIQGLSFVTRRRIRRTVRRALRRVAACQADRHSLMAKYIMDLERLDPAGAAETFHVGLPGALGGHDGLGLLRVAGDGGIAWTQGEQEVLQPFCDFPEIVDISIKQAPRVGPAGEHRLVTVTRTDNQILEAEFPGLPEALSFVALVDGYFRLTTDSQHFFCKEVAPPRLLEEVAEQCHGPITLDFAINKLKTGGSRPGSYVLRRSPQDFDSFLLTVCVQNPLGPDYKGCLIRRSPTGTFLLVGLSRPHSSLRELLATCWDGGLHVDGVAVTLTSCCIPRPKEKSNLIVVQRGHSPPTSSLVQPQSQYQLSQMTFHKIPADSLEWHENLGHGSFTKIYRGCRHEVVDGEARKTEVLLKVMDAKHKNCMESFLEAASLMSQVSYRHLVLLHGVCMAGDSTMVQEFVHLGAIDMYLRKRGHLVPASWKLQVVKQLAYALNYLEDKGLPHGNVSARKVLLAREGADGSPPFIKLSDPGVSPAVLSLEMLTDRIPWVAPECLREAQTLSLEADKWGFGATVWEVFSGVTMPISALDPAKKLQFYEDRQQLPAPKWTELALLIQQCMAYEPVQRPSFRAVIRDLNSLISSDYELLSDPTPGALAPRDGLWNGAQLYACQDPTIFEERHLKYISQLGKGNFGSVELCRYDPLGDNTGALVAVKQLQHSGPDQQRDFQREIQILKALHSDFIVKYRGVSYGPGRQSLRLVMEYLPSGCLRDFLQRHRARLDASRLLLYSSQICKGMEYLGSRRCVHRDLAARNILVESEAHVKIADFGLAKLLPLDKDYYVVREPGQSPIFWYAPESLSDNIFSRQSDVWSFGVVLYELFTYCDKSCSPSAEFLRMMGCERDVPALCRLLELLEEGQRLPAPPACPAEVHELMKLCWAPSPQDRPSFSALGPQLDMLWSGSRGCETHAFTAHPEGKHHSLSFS
Protocol: As a specific substrate, the phosphorylation level of GSK-3[…] at Ser-9 was also evaluated. […] The decrease was specific to the AKT phosphorylation site on GSK-3[…] at Ser-9, since a change in the phosphorylation level of GSK-3[…] at Tyr-216 or GSK-3[…] at Tyr-279 was not observed. Moreover, the in vivo reduction of the phosphorylation of AKT substrates was more obvious at the injection site, since a significant change in the phosphorylation of AKT substrates in the frontal cortex or cerebellum between the two hemispheres was not observed. […] To test the specificity/selectivity of ZaTa as the inhibitor of AKT1 versus the other major kinases, a series of in vitro kinase assays was performed at IC50 for AKT1 and at ten times higher concentrations. A panel of the following 32 kinases was first tested in vitro using the active form of each kinase and a specific substrate: AKT2, AKT3, PKA, PKC[…], PKC, PI3K[…], PI3K[…], PI3K, SGK, PAK2, PAK3, SAPK2/p38, Abl, CaMKII, CDK1/cyclinB, CDK5/p35, CK1, CK2, CSK, GSK3[…], GSK3[…], JNK1[…]1, MAPK1, p70S6K, PDGFR[…], PDGFR[…], PDK1, PKG1[…], TrkB, JAK2, JAK3, and Syk. […] However, at ten times higher concentration, ZaTa inhibited AKT2 (63%), PI3K[…] (72%), p70S6K (64%), SGK (73%), PAK3 (83%), JAK3 (79%), TrkB (84%), and Abl (42%). […]

[2] = molecular target: T2, SGK (Homo sapiens, UniProt O00141); experiment: Cell-based kinase assay, phosphorylation of intracellular substrate (Ser-421 Huntingtin)
T2 construct: endogenous in cells
T2 sequence (O00141 1-431): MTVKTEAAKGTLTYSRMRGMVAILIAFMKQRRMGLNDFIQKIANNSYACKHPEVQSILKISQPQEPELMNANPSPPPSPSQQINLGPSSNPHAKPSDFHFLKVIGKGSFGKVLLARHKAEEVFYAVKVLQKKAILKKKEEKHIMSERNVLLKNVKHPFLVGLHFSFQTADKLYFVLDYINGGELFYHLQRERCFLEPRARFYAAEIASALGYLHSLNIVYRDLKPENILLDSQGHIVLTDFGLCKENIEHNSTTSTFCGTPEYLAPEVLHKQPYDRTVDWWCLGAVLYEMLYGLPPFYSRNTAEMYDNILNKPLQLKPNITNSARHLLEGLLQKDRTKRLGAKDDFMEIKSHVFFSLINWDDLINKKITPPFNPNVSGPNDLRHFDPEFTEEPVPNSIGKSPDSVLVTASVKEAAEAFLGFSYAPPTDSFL
Protocol: (§1) As a specific substrate, the phosphorylation level of GSK-3[…] at Ser-9 was also evaluated. […] The decrease was specific to the AKT phosphorylation site on GSK-3[…] at Ser-9, since a change in the phosphorylation level of GSK-3[…] at Tyr-216 or GSK-3[…] at Tyr-279 was not observed. Moreover, the in vivo reduction of the phosphorylation of AKT substrates was more obvious at the injection site, since a significant change in the phosphorylation of AKT substrates in the frontal cortex or cerebellum between the two hemispheres was not observed. […] To test the specificity/selectivity of ZaTa as the inhibitor of AKT1 versus the other major kinases, a series of in vitro kinase assays was performed at IC50 for AKT1 and at ten times higher concentrations. […]
(§2) Phosphorylation sites for kinases analyzed herein included Ser-235/236 S6 (a substrate for p70S6K), Tyr-207 CRKL (a substrate for Abl; Zipfel, et al. (2004) supra), Ser-241 PDK1 (a substrate for PI3K), Tyr-1022/1023 JAK1 (a substrate for JAK3; Wang, et al. (2003) supra), Ser-421 Huntingtin (a substrate for SGK; Rangone, et al. (2004) supra), Tyr-783 PLC (a substrate for TrkB; Middlemas, et al. (1994) supra), and Ser-338 cRaf (a substrate for PAK3; King, et al. (1998) supra).

[3] = molecular target: Abl (Homo sapiens, UniProt P00519); experiment: Cell-based kinase assay, phosphorylation of intracellular substrate (Tyr-207 CRKL)
Chain of Abl (P00519 whole entry, species assumed): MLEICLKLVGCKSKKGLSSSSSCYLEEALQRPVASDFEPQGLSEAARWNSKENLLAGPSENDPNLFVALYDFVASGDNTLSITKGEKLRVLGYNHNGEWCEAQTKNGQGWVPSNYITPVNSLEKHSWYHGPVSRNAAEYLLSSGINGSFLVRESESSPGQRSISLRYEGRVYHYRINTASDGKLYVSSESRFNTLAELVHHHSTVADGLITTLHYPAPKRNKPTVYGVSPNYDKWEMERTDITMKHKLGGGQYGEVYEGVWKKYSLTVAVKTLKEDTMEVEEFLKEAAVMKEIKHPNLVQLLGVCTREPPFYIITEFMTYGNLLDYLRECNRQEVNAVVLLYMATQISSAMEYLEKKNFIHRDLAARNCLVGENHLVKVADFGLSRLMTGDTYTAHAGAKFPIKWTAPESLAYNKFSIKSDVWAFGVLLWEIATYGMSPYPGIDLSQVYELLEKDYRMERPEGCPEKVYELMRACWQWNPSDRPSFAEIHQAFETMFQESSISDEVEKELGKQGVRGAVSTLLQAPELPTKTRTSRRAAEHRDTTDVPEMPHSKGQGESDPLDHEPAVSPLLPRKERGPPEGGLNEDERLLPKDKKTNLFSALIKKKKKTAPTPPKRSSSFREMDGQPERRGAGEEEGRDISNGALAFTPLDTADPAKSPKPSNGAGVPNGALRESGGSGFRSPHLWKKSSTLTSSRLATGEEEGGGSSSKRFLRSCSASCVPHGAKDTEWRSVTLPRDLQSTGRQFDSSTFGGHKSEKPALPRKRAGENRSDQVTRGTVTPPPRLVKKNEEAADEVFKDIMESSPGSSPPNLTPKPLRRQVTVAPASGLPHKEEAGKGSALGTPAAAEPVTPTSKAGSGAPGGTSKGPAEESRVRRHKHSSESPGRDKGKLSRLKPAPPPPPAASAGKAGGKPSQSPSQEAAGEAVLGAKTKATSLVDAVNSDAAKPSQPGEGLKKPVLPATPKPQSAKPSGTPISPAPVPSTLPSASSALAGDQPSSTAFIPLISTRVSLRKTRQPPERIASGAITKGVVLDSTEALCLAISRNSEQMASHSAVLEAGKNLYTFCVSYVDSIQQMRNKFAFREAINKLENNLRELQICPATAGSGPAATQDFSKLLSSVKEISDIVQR
Protocol: as §1, §2

## AKRVKGRTWTLCGTPEY [ZaTa]
[1]
  inhibition of JAK3: 79%

## labeled ZaTa: ZaTa peptide labeled with a red fluorescent dye at its N-terminus ({red fluorescent dye}-AKRVKGRTWTLCGTPEY; reading uncertain)
[2]
  inhibition of SGK in cells: did not cause inhibition
[3]
  inhibition of Abl in cells: did not cause inhibition

Reference: patent publication US8541670B2, “Compositions and methods for inhibiting tumor cell growth” (priority 2007, dated 2013)
